# The RNAGym collection of RNA variant scans (doi:10.1073/pnas.2313332121)
# Fewer inactive variants are shown than the library holds.
# B1: TPR 5TU (parent)
# chain: GGAUCUUCUCGAUCUAACAAAAAAGACAAAUCUGCCACAAAGCUUGAGAGCAUCUUCGGAUGCAGAGGCGGCAGCCUUCGGUGGCGCGAUAGCGCCAACGUUCUCAACUAUGACACGCAAAACGCGUGCUCCGUUGAAUGGAGUUUAUCAUG
# Variants of: B1
# Experiment: polymerase ribozyme fitness, log enrichment relative to wild type (log ratio); higher = more active; in vitro selection for triplet polymerase activity
# Method in brief: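 The heterodimeric triplet polymerase ribozyme's subunits were each mutagenized into PCR-built libraries and transcribed. Every library was selected once, in triplicate, by annealing with a biotinylated primer, the partner subunit and triplets, incubating frozen at −7 °C, gel-excising extended constructs, capturing on streptavidin beads and running RT-PCR. Input and output libraries were Illumina-sequenced, with genotypes kept only at ≥10 input reads and ≥1 read per output. Fitness, from inverse-variance-weighted replicate averages, is the base-2 logarithm of genotype enrichment over wild-type enrichment.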
row,Variant,polymerase ribozyme fitness (log ratio)
1,U33G C36U A60U C87U A91G C108A U109A,≤ -4.2
2,U31C U45G G46C G83U G94C A115U A119C A142U A150U,≤ -4.2
3,C35U A97U,-2.26
4,C32A G71U A91G A119G A120U U127C G136C,≤ -4.2
5,C35U A107U,-4.03
6,C35A A60U U61G A64C U82C C85A A142C,≤ -4.2
7,U33C C93A C99G G128U,≤ -4.2
8,U33C A47G C93U C103A C132U A137C,≤ -4.2
9,C32A A49U C72A C85A U90G A98G A120C U151A,≤ -4.2
10,C32G A37U U53A,≤ -4.2
11,U31G A113U U134G,-3.56
12,C32U U77A A89U C93U A106U,≤ -4.2
13,U31G A37C C95U U109G G143U G152C,≤ -4.2
14,C32A A37C C54G G83A C118A G136U A138C G141C U145G,≤ -4.2
15,U33A A120U,-4.01
16,C32U G126U,-2.43
17,C35A G65A,-3.77
18,U31G A52G U55G A98U,-0.355
19,C35U C93U,-1.74
20,C32A C54A U130A,≤ -4.2
21,U31C U45C A49U G80A C114A U130C U134A,≤ -4.2
22,C32A G84A A89G A97G U134A U148A,≤ -4.2
23,C32A C69A U145C,-3.25
24,C32G U56A C57U C76A C93A C118G U135C,≤ -4.2

row,Variant,polymerase ribozyme fitness (log ratio)
1,C35U C85G A98U A115G C132A U135A,≤ -4.2
2,C35U A52G U56A U109G A119U,-3.89
3,C32G C76A C87A,≤ -4.2
4,U33C A91U,-3.67
5,U31G C38A U45A G83C C95A,≤ -4.2
6,C35U A52C U90A C95U A122C,≤ -4.2
7,C32A A47C A122G A147C,≤ -4.2
8,C35U C93A C132U A147C,-4.05
9,U33C A37C A64U,≤ -4.2
10,U31C A89C C93U U135A,-2.87
11,C35G A40U G71A C87U G136U U148G,≤ -4.2
12,C35U A37G U61A A64U C149G,≤ -4.2
13,G34U G83U A91C C99U A107U,≤ -4.2
14,U31A C79U,-2.71
15,G34C G94C,-3.85
16,C35G C38A C69U G84U,≤ -4.2
17,U33A U56A C93A G94A A110C A120G U134G U145G,≤ -4.2
18,U31C U148A,-2.56
19,C32G A41C A60U G92U G140C,≤ -4.2
20,U31A U53A G83U G100C G133A,≤ -4.2
21,U33G C51U G80U C87A C96U A120G C129A U148G,≤ -4.2
22,C32G G58A C93A G128A,-4.2
23,C32G A47G C72A A73C C96A U127C,≤ -4.2
24,U31A C75G C76G G83U C95U A115U,≤ -4.2

row,Variant,polymerase ribozyme fitness (log ratio)
1,C32U G59U C85U A115G,-3.62
2,C32U C96U C149U U151A,≤ -4.2
3,C35U C87U C96U C114U,-3.78
4,U31G G68A C75G C105G C131G U139G,≤ -4.2
5,U33C C87A,-3.95
6,C35U A41G G68A C96G A98C C108G G126U U135C,≤ -4.2
7,U33C C57U U61A G84A U101G G140U U145A,-4
8,U31G C54G A60G C85A C99A,≤ -4.2
9,C35G G83C,-4.19
10,U33G G58A G86A,-4.02
11,U31G C95U G126C,0.488
12,U33C C105G,-4.2
13,U31C C87A C108U U148C,-3.95
14,U31G G34A U61A C85G,≤ -4.2
15,U31C C32A C38U U56A G86A A98U,-4.14
16,G34U A47C G67A C79A G84C C95A C123G U135G,≤ -4.2
17,C35A G65A U144C,≤ -4.2
18,U31A A120G,0.523
19,U31A C51G C54U A122G,-2.68
20,C32G U33G G92A C114U,-4.15
21,G34U C96G U144C,≤ -4.2
22,U31A G46A U82C A89G U145C,-3.66
23,U33C C54A U55A G83A C96A C125G G126C U127G,≤ -4.2
24,C35A G80C G88A C103U A110G C149A,≤ -4.2

row,Variant,polymerase ribozyme fitness (log ratio)
1,U31C A49U G74A G84U G117C G133U A142C,≤ -4.2
2,G34C C69G C85G C105A,≤ -4.2
3,C32A A39G G50U U55A A73U C75A A138U,≤ -4.2
4,U31A C116U,-0.00779
5,C32A G74U C85A A98U,-0.754
6,U33G C76U A97U A119C,≤ -4.2
7,C35G G80A A91U C105U,≤ -4.2
8,C32G G81A,-4.14
9,C32U G68A,-3.89
10,C35U A60G U102C C116A,-3.97
11,C35G A41U G136U G141A,≤ -4.2
12,U31G G48C U111G G143A,≤ -4.2
13,C35U C54A G58C,-1.17
14,U33G A98U G124C,-3.27
15,G34A U77A G88A,≤ -4.2
16,C32G C57U G83U C103A C116U U127G G143U,≤ -4.2
17,C35U A60C A98U A142G,-2.28
18,C35A C79U C99U C103U,≤ -4.2
19,C32G G48A G67U C85U C93G U145G,≤ -4.2
20,C32U G68U C87G C99G,-4.11
21,C35U A64G G81U G92A C93A A115U U134A U151G,≤ -4.2
22,G34A C85A,-3.37
23,G34C U61G A150G,≤ -4.2
24,G34A G88C A115C A137G,≤ -4.2

row,Variant,polymerase ribozyme fitness (log ratio)
1,G34A U55G,-0.61
2,C32U A40C,-4.1
3,U31A U78C U146C,-0.876
4,U33G C96A,-1.72
5,C32U C43A C87G A107C C118U G124C,≤ -4.2
6,C35G A47C G67C A91C C103G,≤ -4.2
7,C32G U53A G86C A91C A120U A121U,≤ -4.2
8,C35G U55C G68U A91G G126A,≤ -4.2
9,C35G C95G,-4.19
10,C35U C85G,-2.73
11,U33G A41U C51A G67C C72U,-3.95
12,C35U C85A C103U A119U,-2.38
13,G34C C57U G80C C149U,≤ -4.2
14,C35U C95U G126A,-1.49
15,U33G C43A C57A A60C G74A G83A C85G A150U,≤ -4.2
16,G34U C76U C87U G124U,≤ -4.2
17,C32G A64U C105U G152U,≤ -4.2
18,C35G A52G C96U G140U,-4.08
19,C35A G68A C95G C132G,≤ -4.2
20,U31G C99G U102G C108A C125U U127G U145G,≤ -4.2
21,U31C G94C,0.811
22,U31G C36U U53A G58C C69U G83U C118A U134A G143C G152U,≤ -4.2
23,U33G U53A G59C G84A G94A C125G U144C,≤ -4.2
24,U31C C85G A89G C93U,≤ -4.2

row,Variant,polymerase ribozyme fitness (log ratio)
1,U31A C85U U101A A150U,-1.46
2,U33C C125A,-3.35
3,C32U G81C C114G,≤ -4.2
4,C32A A37G C54A G86C C99A A113G C125U U135A,≤ -4.2
5,U31A C69A G92U A115U,-3.26
6,C35U C114A,-3.87
7,C35U C114U,-2.28
8,G34A A37G U61C,≤ -4.2
9,C32A G50A C57A U82A C99A U101A,≤ -4.2
10,G34A G70A A89G A122G,-4.01
11,U33A C51U C57G C75G C93U C125A G140U,≤ -4.2
12,C32G U45A U56A A91U C93G A107C,≤ -4.2
13,C35A A98G,-3.17
14,G34U A60C C108G A150C,-4.17
15,C32G A110C,≤ -4.2
16,U33A G71U C79G C87G C95G,≤ -4.2
17,C35U C95U,-1.1
18,U31G G83U,-0.727
19,U31C G34A U56G A60G A73G G84A A89U,≤ -4.2
20,U33A G46U A107G,-4.18
21,G34C C93A A106U,≤ -4.2
22,U31A C93U A121U,-0.469
23,C32G G46U A47C G59A,-4.03
24,U33G C85U U139G,-3.72

row,Variant,polymerase ribozyme fitness (log ratio)
1,C35U C87U,-0.746
2,C35A A66C U104G,≤ -4.2
3,U31A G100U,≤ -4.2
4,G34U G48U G59C G67C G81C U134A G141U,≤ -4.2
5,C32G A40U C95A,-3.93
6,U31A G143A,-0.454
7,C35G C76G G81A U82G C93U A121G G152U,-3.58
8,U31G A73G G84A,0.0111
9,C35U C105G G126A,-2.32
10,G34U A41U G84A U145C,-3.69
11,U31G G84U,-0.431
12,G34U A39U G48A U77G C79G C95U,≤ -4.2
13,U31G C35A A47C G74U C87G A142C,≤ -4.2
14,C35U A147C,-0.582
15,C32U A66G A98U,-4.11
16,U33C G141A,-2.97
17,C32A G94A,-4
18,G34C G42A G86A U148C,≤ -4.2
19,C32G C72G C87G C114U U139A,≤ -4.2
20,C32A U45A G80C C87G U90G G152U,≤ -4.2
21,U31C G92A C118G,-2.66
22,C35U A52C G58U G59C G70U C85A G152U,≤ -4.2
23,U33C G59C A64G C96G U130C,≤ -4.2
